For 2 proteins, Km, kcat and kcat/Km results are on record in article PMC4257621, “Structural implications of the C-terminal tail in the catalytic and stability properties of manganese peroxidases from ligninolytic fungi” (Acta Crystallographica Section D: Biological Crystallography, 2014).

Substrate in this series: CCn1c(=NN=c2sc3cc(S(=O)(=O)O)ccc3n2CC)sc2cc(S(=O)(=O)O)ccc21
The experiment in a line: purified protein. It is filed as biochemical, Gelatoporia subvermispora. To be noted: 0.1 M tartrate pH 3.5, 25°C, 0.1 mM H2O2, no Mn2+, micro and ± signs lost in table, µM supported by b43.

B1: MnP6 short variant (Gelatoporia subvermispora B; D200V) (protein)
chain: AVCSDGTRVSNAVCCDFVSLGQDLQSMVLQGDCGEDAHEIIRLTFHDAVAISRKLGPSAGGGADGSMLLFPLVEPEFAASNGIDDSVNNLIPFLSLHPTISAGDLVQFAGAVALSNCPGAPRVQFLAGRPNHTIAAIDGLIPEPQDNVTSILERFDDAGGFTPFEVVSLLASHTIARAVKVDPTLDAAPFDTTPFTFDSQIFLEVLLKGVGFPGLDNNTGEVSSPLPLGDTSTGGKDTGLMRLQSDFALAHDPRTACFWQGFVDQQEFMSQSFASAFAKLAVLGHNTDDLIDCSEVVPVPKPAVDKPTTFPATTGPQDLELSCLAERFPTLSVDPGAQETLIPHCSD
As to B1, the Michaelis constant (Km) (usually the substrate concentration at which the rate is half of its maximum) was 288 ± 12 µM; the kcat (commonly the maximal rate divided by the concentration of active sites) worked out at 76 ± 1 s⁻¹; the kcat/Km (as a rule, the second-order rate constant that governs catalysis at low substrate concentration) is 263000 M⁻¹ s⁻¹.

B2: MnP13 (short) (Gelatoporia subvermispora B) (protein)
chain: VTCPDGVNTVANAACCPLFAVRDDIQESLFDGGKCGEEVHESLRLTFHDAIGFSPSLTAQGKFGGGGADGSIAIFESIETGYHANLGIDEIINEQATFILKHNMTAGDFIQFAGAVGVSNCPGAPQLEFLLGRPAATAPAPDKTVPEPFDTVDSILARFGDAGFSPQEVIALLASHSVAAADHVDPAIPGTPFDSTPSDFDPQIFIEVQLRGTLFPGTGGNQGEVESPYPGEIRLQSDHNLARDSRTACFWQSLANNQQQMQAQFKAAMAKLAVLGQDVSQMVDCSDVIPVPLPPATTPHIPAGLSQNNIEQACATAAFPTLPIDVGPQTSIPPVPGS
B2: the Km worked out at 2440 ± 200 µM, the kcat is 93 ± 3 s⁻¹ and the kcat/Km is 38000 M⁻¹ s⁻¹.
